The chains are these.
T1: human TREM2 (triggering receptor expressed on myeloid cells 2) (human) (UniProt Q9NZC2)
T1 sequence (looked up): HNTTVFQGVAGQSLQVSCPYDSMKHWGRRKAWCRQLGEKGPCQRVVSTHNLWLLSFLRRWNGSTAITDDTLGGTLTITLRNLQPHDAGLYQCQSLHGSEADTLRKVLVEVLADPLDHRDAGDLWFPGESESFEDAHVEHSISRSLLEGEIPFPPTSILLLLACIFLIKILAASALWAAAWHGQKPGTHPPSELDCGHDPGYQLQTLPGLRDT

B1: 6E7 antibody affinity modulation variant V38 (antibody, V domains shown)
VH: EVQLVQSGAEVKKPGESLKISCKGSGYSFGSYWIAWVRQMPGKGLEWMGIIYPGDSDVRYSPSFQGQVTISADKSISTAYLQWSSLKASDTAMYFCARQRTFYYDSSDYFDYWGQGTLVTVSS
VL: DIQMTQSPSSVSASVGDRVTITCRASQGISSWLAWYQQKPGKAPKLLIYAASSRQNGVPSRFSGSGSGTDFTLTISSLQPEDFATYFCQQADSHPRTFGQGTKLEIK
B2: 6E7 antibody affinity modulation variant V2 (antibody, V domains shown)
VH: B1 VH with Y27S, G30T, S56G, V58T, Q99S
VL: B1 VL with S93R, H94F
B3: 6E7 antibody affinity modulation variant V62 (antibody, V domains shown)
VH: B1 VH with V58T, S61A, D108G
VL: B1 VL with R54L, N56R, Q89G, H94F
B4: 6E7 antibody affinity modulation variant V73 (antibody, V domains shown)
VH: B1 VH with V58T, S63G, Q99G
VL: B1 VL with H94Y
B5: 6E7 antibody affinity modulation variant V63 (antibody, V domains shown)
VH: B1 VH with G30R, V58T, Q99S
VL: B1 VL with R54L, N56R, S93R, H94F
B6: 6E7 antibody affinity modulation variant V77 (antibody, V domains shown)
VH: B1 VH with G30T, V58T
VL: B1 VL with H94F
B7: 6E7 antibody affinity modulation variant V64 (antibody, V domains shown)
VH: B1 VH with G30Q, V58T, Q99G
VL: B1 VL with R54L, Q55A, H94Y
B8: 6E7 antibody affinity modulation variant V1 (antibody, V domains shown)
VH: B1 VH with G30T, Y32S, V58T, Q99S
VL: B1 VL with R54L, Q55T, H94Y
B9: 6E7 antibody affinity modulation variant V39 (antibody, V domains shown)
VH: B1 VH with V58T, S61N, Q99G
VL: B1 VL with R54L, Q55V, H94S
B10: 6E7 antibody affinity modulation variant V51 (antibody, V domains shown)
VH: B1 VH with G30T, Q99G, Y112N
VL: B1 VL with H94F
B11: 6E7 antibody affinity modulation variant V87 (antibody, V domains shown)
VH: B1 VH with G30R, S63D, Q99S
VL: B1 VL with R54L, N56W, H94F
B12: 6E7 antibody affinity modulation variant V50 (antibody, V domains shown)
VH: B1 VH with I50V, V58T, F110L
VL: B1 VL with H94L
B13: 6E7 antibody affinity modulation variant V49 (antibody, V domains shown)
VH: B1 VH with G30N, I50T, V58T, Y60L, Q99S
VL: B1 VL with H94Y
B14: 6E7 antibody affinity modulation variant V60 (antibody, V domains shown)
VH: B1 VH with S28H, G30T, F110S
VL: B1 VL with R54L, N56R, Q89G, H94F
B15: 6E7 antibody affinity modulation variant V61 (antibody, V domains shown)
VH: B1 VH with G30S, V58T, S61N, Q99G
VL: B1 VL with R54L, Q55V, H94L
B16: 6E7 antibody affinity modulation variant V86 (antibody, V domains shown)
VH: B1 VH with I34L, V58T, Q65E, Q99S
VL: B1 VL with H94F
B17: 6E7 antibody affinity modulation variant V48 (antibody, V domains shown)
VH: B1 VH with Q99M
VL: B1 VL with R54L, N56T, H94L
B18: 6E7 antibody affinity modulation variant V53 (antibody, V domains shown)
VH: B1 VH with G30T, V58T, S63H
VL: B1 VL with R54L, H94F
B19: 6E7 antibody affinity modulation variant V76 (antibody, V domains shown)
VH: B1 VH with V58T, S63E, F110S
VL: B1 VL with R54L, N56K, T69R, H94F
B20: 6E7 antibody affinity modulation variant V3 (antibody, V domains shown)
VH: B1 VH with G30A, V58T, G66D, Q99G
VL: B1 VL with S93R, H94F
B21: 6E7 antibody affinity modulation variant V40 (antibody, V domains shown)
VH: B1 VH with F110S
VL: B1 VL with R54L, N56L, S93R, H94F
B22: 6E7 antibody affinity modulation variant V85 (antibody, V domains shown)
VH: B1 VH with G30R, I50T, V58T, Q99S
VL: B1 VL with H94F
B23: 6E7 antibody affinity modulation variant V65 (antibody, V domains shown)
VH: B1 VH with G30T, V58T, Q99S
VL: B1 VL with R54L, H94F
B24: 6E7 antibody affinity modulation variant V74 (antibody, V domains shown)
VH: B1 VH with G30A, Q99G
VL: B1 VL with R54L, N56L, H94F
B25: 6E7 antibody affinity modulation variant V41 (antibody, V domains shown)
VH: B1 VH with G30T, I50T, V58T
VL: B1 VL with R54L, H94F
B26: 6E7 antibody affinity modulation variant V75 (antibody, V domains shown)
VH: B1 VH with G30T, V58T, Q99G
VL: B1 VL with R54L, N56A, H94Y
B27: 6E7 antibody affinity modulation variant V84 (antibody, V domains shown)
VH: B1 VH with S28G, G30T, V58T, F110S
VL: B1 VL with A50G, R54L, H94F

Residue numbers refer to the chain shown, from its start.

In the first assay the target is T1, human TREM2 (triggering receptor expressed on myeloid cells 2) (human). The assay can be described thus: 2nd screen, 2 nM Ab.
Take B1: the Binding Signal (fold over 6E7 parental antibody) turned out to be 3.44 fold.
The same measure, in the same setting: for B2 the value was 2.23 fold.
Same read-out and setting: for B3 the value was 1.87 fold; for B4, 4.17 fold; for B5, 4.91 fold.
Same read-out and setting: in the case of B6 it was 0.83 fold; in that of B7, 4.88 fold; in that of B8, 1.29 fold.
As to B9, the Binding Signal (fold over 6E7 parental antibody) is 5.11 fold.
Still for that read-out and setting: in the case of B10 it was 1.83 fold.
The same measure, in the same setting: for B11 the value was 4.86 fold.
On the same count and under the same terms, in the case of B12 it was 3.39 fold; in that of B13, 5.02 fold.
Take B14: the Binding Signal (fold over 6E7 parental antibody) was 3.35 fold.
For the molecule B15, the Binding Signal (fold over 6E7 parental antibody) came out at 3.63 fold.
As to B16, the Binding Signal (fold over 6E7 parental antibody) came out at 5.17 fold.
On the same count and under the same terms, for B17 the value was 2.3 fold; for B18, 0.66 fold.
Still for that read-out and setting: in the case of B19 it was 4.34 fold.
Regarding B20, the Binding Signal (fold over 6E7 parental antibody) worked out at 1.95 fold.
As for B21, the Binding Signal (fold over 6E7 parental antibody) came to 3.41 fold.
The same measure, in the same setting: in the case of B22 it was 5.41 fold; in that of B23, 1.29 fold.
The same measure, in the same setting: in the case of B24 it was 2.54 fold; in that of B25, 0.58 fold; in that of B26, 3.74 fold.
Same read-out and setting: for B27 the value was 1.45 fold.

Another assay shares this target. The assay can be described thus: 1st screen, 10 nM Ab.
B1: the Binding Signal (fold over 6E7 parental antibody) stood at 4.34 fold.
Same read-out and setting: in the case of B2 it was 2.55 fold.
Still for that read-out and setting: for B3 the value was 2.49 fold.
For B4, the Binding Signal (fold over 6E7 parental antibody) worked out at 5.12 fold.
On to B5, for which the Binding Signal (fold over 6E7 parental antibody) is 3.76 fold.
B6: the Binding Signal (fold over 6E7 parental antibody) was found to be 1.43 fold.
The same measure, in the same setting: in the case of B7 it was 5.41 fold; in that of B8, 1.68 fold; in that of B9, 6.15 fold.
On the same count and under the same terms, for B10 the value was 2.81 fold; for B11, 3.84 fold; for B12, 4.1 fold.
On the same count and under the same terms, in the case of B13 it was 6.51 fold; in that of B14, 3.26 fold; in that of B15, 5.08 fold.
Take B16: the Binding Signal (fold over 6E7 parental antibody) worked out at 4.8 fold.
On the same count and under the same terms, in the case of B17 it was 2.42 fold; in that of B18, 1.25 fold.
Consider B19, for which the Binding Signal (fold over 6E7 parental antibody) turned out to be 4.57 fold.
Still for that read-out and setting: in the case of B20 it was 1.97 fold; in that of B21, 4.48 fold; in that of B22, 5.41 fold.
On the same count and under the same terms, for B23 the value was 2.05 fold; for B24, 3.94 fold; for B25, 1.74 fold.
Same read-out and setting: in the case of B26 it was 4.64 fold; in that of B27, 1.44 fold.

The next assay shares this target. Kind of assay: 2nd screen, 10 nM Ab.
Take B1: the Binding Signal (fold over 6E7 parental antibody) amounted to 4.36 fold.
The same measure, in the same setting: in the case of B2 it was 2.9 fold; in that of B3, 2.89 fold.
Still for that read-out and setting: in the case of B4 it was 5.44 fold; in that of B5, 3.71 fold; in that of B6, 1.38 fold.
Same read-out and setting: for B7 the value was 5.48 fold; for B8, 1.92 fold.
Take B9: the Binding Signal (fold over 6E7 parental antibody) was 5.81 fold.
B10: the Binding Signal (fold over 6E7 parental antibody) was found to be 3.18 fold.
The same measure, in the same setting: in the case of B11 it was 3.93 fold; in that of B12, 4.16 fold; in that of B13, 6.58 fold.
The same measure, in the same setting: for B14 the value was 3.63 fold; for B15, 5.22 fold; for B16, 5.02 fold.
The same measure, in the same setting: in the case of B17 it was 2.54 fold.
Regarding B18, the Binding Signal (fold over 6E7 parental antibody) was determined as 1.17 fold.
Turning to B19, the Binding Signal (fold over 6E7 parental antibody) came to 4.93 fold.
The same measure, in the same setting: in the case of B20 it was 2.24 fold; in that of B21, 4.16 fold; in that of B22, 5.37 fold.
Still for that read-out and setting: for B23 the value was 2.75 fold; for B24, 4.01 fold; for B25, 1.72 fold.
In the case of B26, the Binding Signal (fold over 6E7 parental antibody) worked out at 4.52 fold.
On the same count and under the same terms, for B27 the value was 1.62 fold.

The values above are taken from US20250019437A1.
